From the RNAGym collection of RNA variant scans (doi:10.1021/acssynbio.7b00057)

B1: Pistol ribozyme (parent)
chain: GGGUCGUUGUUCCAUAAUCGCGUGGAUAUGGCACGCAAGUUUCUACCGGGCACCGUAAAUGUCCGACUGGAGCCGUUCGGGCGGCUAUAAACAGACCUCAGGCCCGAAGCGUGGCGGCACCUGCCGCCGGUGGUAAAAAAGAUCGGAAGAGCACACGUCU

Variants of: B1
Experiment: aptazyme ON/OFF ratio, guanine; higher = stronger switching; co-transcriptional cleavage with and without guanine

Row | Variant | aptazyme ON/OFF ratio
1 | GGGUCGGUGCCUCAUAAUCGCGUGGAUAUGGCACGCAAGUUUCUACCGGGCACCGUAAAUGUCCGACUGGAGCCGUUCGGGCGGCUAUAAACAGACCUCAGGCCCGAAGCGUGGCGGCACCUGCCGCCGGUGGUAAAAAAGAUCGGAAGAGCACACGUCU | 1.12
2 | GGGUCGGUGCCGCAUAAUCGCGUGGAUAUGGCACGCAAGUUUCUACCGGGCACCGUAAAUGUCCGACUGGAGCCGUUCGGGCGGCUAUAAACAGACCUCAGGCCCGAAGCGUGGCGGCACCUGCCGCCGGUGGUAAAAAAGAUCGGAAGAGCACACGUCU | 1.13
3 | GGGUCGGUGCGUGAUAAUCGCGUGGAUAUGGCACGCAAGUUUCUACCGGGCACCGUAAAUGUCCGACUGGAGCCGUUCGGGCGGCUAUAAACAGACCUCAGGCCCGAAGCGUGGCGGCACCUGCCGCCGGUGGUAAAAAAGAUCGGAAGAGCACACGUCU | 1.13
4 | GGGUCGGUGCGUAAUAAUCGCGUGGAUAUGGCACGCAAGUUUCUACCGGGCACCGUAAAUGUCCGACUGGAGCCGUUCGGGCGGCUAUAAACAGACCUCAGGCCCGAAGCGUGGCGGCACCUGCCGCCGGUGGUAAAAAAGAUCGGAAGAGCACACGUCU | 1.11
5 | GGGUCGGUGCGUUAUAAUCGCGUGGAUAUGGCACGCAAGUUUCUACCGGGCACCGUAAAUGUCCGACUGGAGCCGUUCGGGCGGCUAUAAACAGACCUCAGGCCCGAAGCGUGGCGGCACCUGCCGCCGGUGGUAAAAAAGAUCGGAAGAGCACACGUCU | 1.18
6 | GGGUCGGUGCGCUAUAAUCGCGUGGAUAUGGCACGCAAGUUUCUACCGGGCACCGUAAAUGUCCGACUGGAGCCGUUCGGGCGGCUAUAAACAGACCUCAGGCCCGAAGCGUGGCGGCACCUGCCGCCGGUGGUAAAAAAGAUCGGAAGAGCACACGUCU | 1.14
7 | GGGUCGGUGCGCAAUAAUCGCGUGGAUAUGGCACGCAAGUUUCUACCGGGCACCGUAAAUGUCCGACUGGAGCCGUUCGGGCGGCUAUAAACAGACCUCAGGCCCGAAGCGUGGCGGCACCUGCCGCCGGUGGUAAAAAAGAUCGGAAGAGCACACGUCU | 1.08
8 | GGGUCGGUGCGCGAUAAUCGCGUGGAUAUGGCACGCAAGUUUCUACCGGGCACCGUAAAUGUCCGACUGGAGCCGUUCGGGCGGCUAUAAACAGACCUCAGGCCCGAAGCGUGGCGGCACCUGCCGCCGGUGGUAAAAAAGAUCGGAAGAGCACACGUCU | 1.09
9 | GGGUCGGUGGUAGAUAAUCGCGUGGAUAUGGCACGCAAGUUUCUACCGGGCACCGUAAAUGUCCGACUGGAGCCGUUCGGGCGGCUAUAAACAGACCUCAGGCCCGAAGCGUGGCGGCACCUGCCGCCGGUGGUAAAAAAGAUCGGAAGAGCACACGUCU | 1.11
10 | GGGUCGGUGGUAUAUAAUCGCGUGGAUAUGGCACGCAAGUUUCUACCGGGCACCGUAAAUGUCCGACUGGAGCCGUUCGGGCGGCUAUAAACAGACCUCAGGCCCGAAGCGUGGCGGCACCUGCCGCCGGUGGUAAAAAAGAUCGGAAGAGCACACGUCU | 1.34
11 | GGGUCGGUGGUAAAUAAUCGCGUGGAUAUGGCACGCAAGUUUCUACCGGGCACCGUAAAUGUCCGACUGGAGCCGUUCGGGCGGCUAUAAACAGACCUCAGGCCCGAAGCGUGGCGGCACCUGCCGCCGGUGGUAAAAAAGAUCGGAAGAGCACACGUCU | 1.09
12 | GGGUCGGUGCCUAAUAAUCGCGUGGAUAUGGCACGCAAGUUUCUACCGGGCACCGUAAAUGUCCGACUGGAGCCGUUCGGGCGGCUAUAAACAGACCUCAGGCCCGAAGCGUGGCGGCACCUGCCGCCGGUGGUAAAAAAGAUCGGAAGAGCACACGUCU | 1.06
13 | GGGUCGGUGCCUUAUAAUCGCGUGGAUAUGGCACGCAAGUUUCUACCGGGCACCGUAAAUGUCCGACUGGAGCCGUUCGGGCGGCUAUAAACAGACCUCAGGCCCGAAGCGUGGCGGCACCUGCCGCCGGUGGUAAAAAAGAUCGGAAGAGCACACGUCU | 1.09
14 | GGGUCGGUGCCUGAUAAUCGCGUGGAUAUGGCACGCAAGUUUCUACCGGGCACCGUAAAUGUCCGACUGGAGCCGUUCGGGCGGCUAUAAACAGACCUCAGGCCCGAAGCGUGGCGGCACCUGCCGCCGGUGGUAAAAAAGAUCGGAAGAGCACACGUCU | 1.09
15 | GGGUCGGUGCCCUAUAAUCGCGUGGAUAUGGCACGCAAGUUUCUACCGGGCACCGUAAAUGUCCGACUGGAGCCGUUCGGGCGGCUAUAAACAGACCUCAGGCCCGAAGCGUGGCGGCACCUGCCGCCGGUGGUAAAAAAGAUCGGAAGAGCACACGUCU | 1.05
16 | GGGUCGGUGCCCAAUAAUCGCGUGGAUAUGGCACGCAAGUUUCUACCGGGCACCGUAAAUGUCCGACUGGAGCCGUUCGGGCGGCUAUAAACAGACCUCAGGCCCGAAGCGUGGCGGCACCUGCCGCCGGUGGUAAAAAAGAUCGGAAGAGCACACGUCU | 1.06
17 | GGGUCGGUGCCCGAUAAUCGCGUGGAUAUGGCACGCAAGUUUCUACCGGGCACCGUAAAUGUCCGACUGGAGCCGUUCGGGCGGCUAUAAACAGACCUCAGGCCCGAAGCGUGGCGGCACCUGCCGCCGGUGGUAAAAAAGAUCGGAAGAGCACACGUCU | 1.01
18 | GGGUCGGUGCGCCAUAAUCGCGUGGAUAUGGCACGCAAGUUUCUACCGGGCACCGUAAAUGUCCGACUGGAGCCGUUCGGGCGGCUAUAAACAGACCUCAGGCCCGAAGCGUGGCGGCACCUGCCGCCGGUGGUAAAAAAGAUCGGAAGAGCACACGUCU | 1.22

Row | Variant | aptazyme ON/OFF ratio
19 | GGGUCGGUGCGUCAUAAUCGCGUGGAUAUGGCACGCAAGUUUCUACCGGGCACCGUAAAUGUCCGACUGGAGCCGUUCGGGCGGCUAUAAACAGACCUCAGGCCCGAAGCGUGGCGGCACCUGCCGCCGGUGGUAAAAAAGAUCGGAAGAGCACACGUCU | 1.2
20 | GGGUCGGUGCGACAUAAUCGCGUGGAUAUGGCACGCAAGUUUCUACCGGGCACCGUAAAUGUCCGACUGGAGCCGUUCGGGCGGCUAUAAACAGACCUCAGGCCCGAAGCGUGGCGGCACCUGCCGCCGGUGGUAAAAAAGAUCGGAAGAGCACACGUCU | 1.12
21 | GGGUCGGUGCGGCAUAAUCGCGUGGAUAUGGCACGCAAGUUUCUACCGGGCACCGUAAAUGUCCGACUGGAGCCGUUCGGGCGGCUAUAAACAGACCUCAGGCCCGAAGCGUGGCGGCACCUGCCGCCGGUGGUAAAAAAGAUCGGAAGAGCACACGUCU | 1.15
22 | GGGUCGGUGCCAGAUAAUCGCGUGGAUAUGGCACGCAAGUUUCUACCGGGCACCGUAAAUGUCCGACUGGAGCCGUUCGGGCGGCUAUAAACAGACCUCAGGCCCGAAGCGUGGCGGCACCUGCCGCCGGUGGUAAAAAAGAUCGGAAGAGCACACGUCU | 1.08
23 | GGGUCGGUGCCAAAUAAUCGCGUGGAUAUGGCACGCAAGUUUCUACCGGGCACCGUAAAUGUCCGACUGGAGCCGUUCGGGCGGCUAUAAACAGACCUCAGGCCCGAAGCGUGGCGGCACCUGCCGCCGGUGGUAAAAAAGAUCGGAAGAGCACACGUCU | 1.08
24 | GGGUCGGUGCCAUAUAAUCGCGUGGAUAUGGCACGCAAGUUUCUACCGGGCACCGUAAAUGUCCGACUGGAGCCGUUCGGGCGGCUAUAAACAGACCUCAGGCCCGAAGCGUGGCGGCACCUGCCGCCGGUGGUAAAAAAGAUCGGAAGAGCACACGUCU | 1.11
25 | GGGUCGGUGGUACAUAAUCGCGUGGAUAUGGCACGCAAGUUUCUACCGGGCACCGUAAAUGUCCGACUGGAGCCGUUCGGGCGGCUAUAAACAGACCUCAGGCCCGAAGCGUGGCGGCACCUGCCGCCGGUGGUAAAAAAGAUCGGAAGAGCACACGUCU | 1.22
26 | GGGUCGGUGGUGCAUAAUCGCGUGGAUAUGGCACGCAAGUUUCUACCGGGCACCGUAAAUGUCCGACUGGAGCCGUUCGGGCGGCUAUAAACAGACCUCAGGCCCGAAGCGUGGCGGCACCUGCCGCCGGUGGUAAAAAAGAUCGGAAGAGCACACGUCU | 1.09
27 | GGGUCGGUGCGGGAUAAUCGCGUGGAUAUGGCACGCAAGUUUCUACCGGGCACCGUAAAUGUCCGACUGGAGCCGUUCGGGCGGCUAUAAACAGACCUCAGGCCCGAAGCGUGGCGGCACCUGCCGCCGGUGGUAAAAAAGAUCGGAAGAGCACACGUCU | 1.07
28 | GGGUCGGUGCGGUAUAAUCGCGUGGAUAUGGCACGCAAGUUUCUACCGGGCACCGUAAAUGUCCGACUGGAGCCGUUCGGGCGGCUAUAAACAGACCUCAGGCCCGAAGCGUGGCGGCACCUGCCGCCGGUGGUAAAAAAGAUCGGAAGAGCACACGUCU | 1.05
29 | GGGUCGGUGCGGAAUAAUCGCGUGGAUAUGGCACGCAAGUUUCUACCGGGCACCGUAAAUGUCCGACUGGAGCCGUUCGGGCGGCUAUAAACAGACCUCAGGCCCGAAGCGUGGCGGCACCUGCCGCCGGUGGUAAAAAAGAUCGGAAGAGCACACGUCU | 1.11
30 | GGGUCGGUGGUCCAUAAUCGCGUGGAUAUGGCACGCAAGUUUCUACCGGGCACCGUAAAUGUCCGACUGGAGCCGUUCGGGCGGCUAUAAACAGACCUCAGGCCCGAAGCGUGGCGGCACCUGCCGCCGGUGGUAAAAAAGAUCGGAAGAGCACACGUCU | 1.42
31 | GGGUCGGUGCGAGAUAAUCGCGUGGAUAUGGCACGCAAGUUUCUACCGGGCACCGUAAAUGUCCGACUGGAGCCGUUCGGGCGGCUAUAAACAGACCUCAGGCCCGAAGCGUGGCGGCACCUGCCGCCGGUGGUAAAAAAGAUCGGAAGAGCACACGUCU | 1.07
32 | GGGUCGGUGCGAUAUAAUCGCGUGGAUAUGGCACGCAAGUUUCUACCGGGCACCGUAAAUGUCCGACUGGAGCCGUUCGGGCGGCUAUAAACAGACCUCAGGCCCGAAGCGUGGCGGCACCUGCCGCCGGUGGUAAAAAAGAUCGGAAGAGCACACGUCU | 1.11
33 | GGGUCGGUGCGAAAUAAUCGCGUGGAUAUGGCACGCAAGUUUCUACCGGGCACCGUAAAUGUCCGACUGGAGCCGUUCGGGCGGCUAUAAACAGACCUCAGGCCCGAAGCGUGGCGGCACCUGCCGCCGGUGGUAAAAAAGAUCGGAAGAGCACACGUCU | 1.11
34 | GGGUCGGUGCCGAAUAAUCGCGUGGAUAUGGCACGCAAGUUUCUACCGGGCACCGUAAAUGUCCGACUGGAGCCGUUCGGGCGGCUAUAAACAGACCUCAGGCCCGAAGCGUGGCGGCACCUGCCGCCGGUGGUAAAAAAGAUCGGAAGAGCACACGUCU | 1.1
35 | GGGUCGGUGCCGUAUAAUCGCGUGGAUAUGGCACGCAAGUUUCUACCGGGCACCGUAAAUGUCCGACUGGAGCCGUUCGGGCGGCUAUAAACAGACCUCAGGCCCGAAGCGUGGCGGCACCUGCCGCCGGUGGUAAAAAAGAUCGGAAGAGCACACGUCU | 1.06
36 | GGGUCGGUGCCGGAUAAUCGCGUGGAUAUGGCACGCAAGUUUCUACCGGGCACCGUAAAUGUCCGACUGGAGCCGUUCGGGCGGCUAUAAACAGACCUCAGGCCCGAAGCGUGGCGGCACCUGCCGCCGGUGGUAAAAAAGAUCGGAAGAGCACACGUCU | 1.08
